# Measurements taken from the nanobody polyreactivity screen of Harvey et al. (2022).
# Assay: yeast display, Sf9 membrane polyspecificity reagent, FACS + sequencing; frameworks hold sequencing errors
# Method in brief: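 Nanobodies from a synthetic yeast display library (Saccharomyces cerevisiae BJ5465), induced 36–48 hours with galactose, were stained 1 hour at 4 °C with 10% biotinylated, detergent-solubilized Sf9 membrane reagent, enriched on streptavidin microbeads, then FACS-sorted. Anti-HA (expression) and streptavidin (reagent binding) fluorescence set low and high (top ~1%) gates. Polyreactivity labels come from the gate of origin. Genes were colony-PCR amplified, MiSeq 2 × 250 sequenced and filtered by CDR length.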
row,Sequence,polyreactivity (PSR sort gate)
1,QVQLVESGGGLVQAGGSLRLSCAASGRTFDSYVMGWYRQAPGKERELVAAISSRGGTYYADSVKGRFTISRDNAKNTVYLQMNSLKPEDTAVYYCAARIYRKYYRYDYWGQGTQVTVSS,high polyreactivity
2,QVQLVESGGGLVQAGGSLRLSCAASGRTFDTYAMGWYRQAPWKERELVAAITRRTYYADSVKGRFTISRDNAKNSVYLQMNSLKPEDTAVYYCAVRFLRKWTSSRHYGYWGQGTQVTVSS,high polyreactivity
3,QVQLVESGGGLVQAGGSLRLSCAASGRTFDVYAMGWYRPAPGKERELVATIRSDGSTTYADSVKGRFTISRDNAKNTDYLQLNSLKPEDTAVYYCAAERVGVFFRYDYWGQGTQVTVSS,low polyreactivity
4,QVQLVESGGGLVQAGGSLRLSCAASGRTFDVYAMGWYRQAPGKERELVAAISWSGGGTYYADSVKGRFTISRDNAKNTVYLQLTSLNPADTAVYSCAAALTFALDPNRYTYSDYYYWGQGTQVTVSS,low polyreactivity
5,QVQLVESGGGLVQAGGSLRLSCAASGRTFDYKAMGWYRQAPGKERELVAAIDVNGGDTYYADSVKGRFTISRDNAKNTVYLQMNSLKPEDTAVYYCAAERDARTDDYWGQGTQVTVSS,low polyreactivity
6,QVQLVESGGGLVQAGGSLRLSCAASGRTFDYNTMGWYRQAPGKVRELVAAISASGGSTYYADSVKGRFTISRDNAKNTVDLPMNSLKPEDTAVYYCNTYAGVEYYHWGQGTQVTVSS,low polyreactivity
7,QVQLVESGGGLVQAGGSLRLSCAASGRTFDYYAMGWYRQAPGKERELVAAISSSGGSTYYADSVKGRFTISRDNAKNTVYLQMNSLKPEDTEVYYCNAYAYRFNHIHHIYTTDGEYWGQGTQVTVSS,high polyreactivity
8,QVQLVESGGGLVQAGGSLRLSCAASGRTFDYYAMGWYRQAPGKERELVAAITSGGSTYYADSVKGRFTISRDNAKNTDYLQMNSLKPEDTAVYYCAKSWALTRGYGSRYYVYRYDYWGQGTQVTVSS,low polyreactivity
9,QVQLVESGGGLVQAGGSLRLSCAASGRTFEGNALGWYRQAPGKERELVAAITSGGRTNYADSVKGRFTISRDNAKNTVYLQMNSLKPEDTAVYYCAVETRDRSTYFPGQAYDYWGQGTQVTVSS,low polyreactivity
10,QVQLVESGGGLVQAGGSLRLSCAASGRTFEGYAMGWYRQAPGKERELVAAISNSGGSTYYADSVKGRFTIARDNAKNTVYLQMNSLKPEDTAVYYCAALSRIPRYGYWGQGTQVTVSA,high polyreactivity
11,QVQLVESGGGLVQAGGSLRLSCAASGRTFEHYAMGWYRQAPGKERELVAAINSSDGGTYYADSVKGRFTISRDNAKNTVYLQMNSLKPEDTAVYYCAAAEFGSVPGYEMDYWGQGTQVTVSS,low polyreactivity
12,QVQLVESGGGLVQAGGSLRLSCAASGRTFENYAMGWYRQAPGKERELVAAISKSGGSTYYADSVKGRFTISRDNAKNTVYLQMNSLKPEDTAVYYCNARPGQSGARFGYWGQGTQVTVSS,high polyreactivity
13,QVQLVESGGGLVQAGGSLRLSCAASGRTFENYVMGWYRQAPGKERELVPAITVSGGSTYYADSVKGRFTISRDIAKNTVYLQMNSLKPEDTAVYYCAADPNVLFSQKYYEPNDYWGQGTQVTVSS,low polyreactivity
14,QVQLVESGGGLVQAGGSLRLSCAASGRTFERNALGWYRQAPGKEREFVAAITEIGGSTYYADSVKGRFTISRDNAMNTVYLQMNSLKPEDTAVYYCAKDGTYSPYDYWGQGTQVTVSS,low polyreactivity
15,QVQLVESGGGLVQAGGSLRLSCAASGRTFESYGMGWYRQAPGKERELVAAITWSGGDTYYADSVKGRFTISRDNAKNTVYLQMNSLKPEDTAVYYCAKEQGLYSVSPYDYWGQGTQVTVSS,low polyreactivity
16,QVQLVESGGGLVQAGGSLRLSCAASGRTFETNAMGWYRQAPGKERELVASINWSGGSTYYADSVKGRFTISRDNAKNTVYLQMNSLKPEDTAVFYCAADHSYWDWWSYYYWGQGTQVTVSS,low polyreactivity

row,Sequence,polyreactivity (PSR sort gate)
1,QVQLVESGGGLVQAGGSLRLSCAASGRTFETNAMGWYRQAPGKERELVASINWSGGSTYYADSVKGRFTISRDNAKNTVYLQMNSLKPEDTAVYYCAAEHSYWDWWSYYYWGQGTLVTVSS,low polyreactivity
2,QVQLVESGGGLVQAGGSLRLSCAASGRTFEYNAMGWYRQAPGKEREFVAAITYSGGGTYYADSVKGRFTISRDNAKNTVYLQMNSLKPEDTAVYYCARERTRVHKHYYWGQGTQVTVSS,low polyreactivity
3,QVQLVESGGGLVQAGGSLRLSCAASGRTFEYYAMGWYRPAPGKERELVAAITYSGDSTYYADSVKGRFTISRDNAKNTVYLQMNSLKPEDTAVYYCAADWSSLKDDYWGQGTQVTVSS,low polyreactivity
4,QVQLVESGGGLVQAGGSLRLSCAASGRTFEYYAMGWYRQAPGKEREFVAAISRRGDSTYYADSVKGRFTISRDNAKNTVYLQMNSLKPEDTAVYYCAAKSYSARTKYYYWGQGTQVTVSS,high polyreactivity
5,QVQLVESGGGLVQAGGSLRLSCAASGRTFEYYAMGWYRQAPGKERELVASISFGGGSTYADSVKGRFTISRDNAKNTVYLQMNSLKPEDTAVYYCAATGGWYKHWFDYWGQGTQVTVSS,low polyreactivity
6,QVQLVESGGGLVQAGGSLRLSCAASGRTFFANAMGWYRQAPGKERELVAAITSNTGTTYYADSVKGRFTISRDNAKNTVYLQMNSLKPEDTAVYYCAARYTFRYEYWGQGTQVTVSS,high polyreactivity
7,QVQLVESGGGLVQAGGSLRLSCAASGRTFFDYAMGWYRQAPGKERELVATIRGGGSTNYADSVKGRFTISRDNAKNTVYLQMNSLKPEDTAVYYCAVRRRWYFPQYRSGRSLDYWGQGTQVTVSS,high polyreactivity
8,QVQLVESGGGLVQAGGSLRLSCAASGRTFFENAMGWYRQAPGKEREFVAAISYNGGSTYYADSVKGRFTISRDNAKNTVYLQMNSLKPEDTAVYYCAAEADGLRYDDNYWGQCTQVTVSS,low polyreactivity
9,QVQLVESGGGLVQAGGSLRLSCAASGRTFFEYAMGWYRQAPGKERELVAIITNGATTNYADSVKGRFTISRDNAKNTVYLQMNSLKPEDTAVYYCAVAKWQPRRRKYYYWGQGTQVTVSS,high polyreactivity
10,QVQLVESGGGLVQAGGSLRLSCAASGRTFFGYAMGWYRQAPGKERELVAAINWGGASTYYADSVKGRFTISRDNAKNTVYLQMNSLKPEDTAVYYCAADSVPSRPTYGRYDYWGQGTQVTVSS,low polyreactivity
11,QVQLVESGGGLVQAGGSLRLSCAASGRTFFKYAMGWYRQAPGKERELVAAIRSGTSTYYADSVKGRFTISRDNAKNTVYLHMNSLKPEDTAVYYCAADWHSKIGKGYDYWGQGTQVTVSS,high polyreactivity
12,QVQLVESGGGLVQAGGSLRLSCAASGRTFFKYAMGWYRQAPGKERELVAAISSVGSTYYADSVKGRFTISRDNAKNSVYLQMNSLKPEDTAVYYCAARKNRAYGYWGQGTQVTVSS,high polyreactivity
13,QVQLVESGGGLVQAGGSLRLSCAASGRTFFPNAMGWYRPAPGKERELVAAITWRGGSTYYADSVKGRFTISRDNAKNTVYLQMNSLKPEDTAVYYCAARDNPRWPRYYRGRTYDYWGQGTQVTVSS,high polyreactivity
14,QVQLVESGGGLVQAGGSLRLSCAASGRTFFPNEMGWYRQAPGKERELVAAITSAGSTNYADSVKGRFTISRDNEKTTVYLQMNSLKPEETAVYYCAAVYPPIHQRYIVDYWGQGTQETVSS,low polyreactivity
15,QVQLVESGGGLVQAGGSLRLSCAASGRTFFPYAMGWYRQAPGKEREFVAAITKSDYSTYYADSVKGRFTISRDNAKNTVYLQKNSLKPEDNAVYYCNAGDTQIRFYYWGQGTQVTVSS,low polyreactivity
16,QVQLVESGGGLVQAGGSLRLSCAASGRTFFPYAMGWYRQAPGKERELVAAISLDDDTTYYADSVKGRFTISRDNAKNTVYLQMNSLKPEDTAVYYCAARGTRVRSLYDYWGQGTQVTVSS,high polyreactivity
